These results are taken from article PMC7589773.

The experiment addresses AAV-DJ capsid viral protein (VP) subunit of the empty capsid (virus-like particle). The experiment can be described thus: cryo-EM structure; empty AAV-DJ capsids (VLPs) in 50 mM HEPES, 25 mM MgCl2, 25 mM NaCl, pH 7.4; I1 symmetry imposed; 1.56 Å resolution.

Substance “AAV-DJ capsid viral protein (VP) subunit of the empty capsid (virus-like particle)” registered a stoichiometry N of 60.

In general, stoichiometry N refers to the number of molecules, sites or subunits per partner or assembly.
